This note sets out measurements from patent publication US20020045591A1, “Methods and therapeutic compositions for treating cancer” (priority 1998, published 2002).

The test deals with β-catenin-mediated transactivation. The experiment in a line: TOPFLASH/FOPFLASH luciferase transactivation in CHO cells. In kind it is cell-based. The settings on record: TOPFLASH, FIG. 5A lanes 7-9. As to the method:
Cell culture and transfections: CHO and SW480 human colon carcinoma cells were cultured in Dulbecco's modified Eagle's medium containing 10% fetal calf serum in an 8% CO2 incubator at 37° C. Transfections were performed using Lipofectamine (Gibco, BRL, USA) according to the manufacturer's instructions. Stably transfected CHO clones were generated by co-transfection with a plasmid encoding the puromycin resistance gene. Two days after transfection, cells were replated in the presence of 10 μg/ml puromycin (Sigma, Holon, Israel). Stable clones were isolated 2 weeks later and tested for the expression of the transgene by Western blot analysis.
Transactivation assays: CHO cells were transfected with TOPFLASH or FOPFLASH vectors (van de Wetering et al., 1997, ibid) and with pCDNA3 coding for β-galactosidase to normalize for transfection efficiency. The transfection mixture also contained either β-catenin, LEF-1 or cadherin derivatives in different combinations, as indicated. SW480 cells were transfected with TOPFLASH and cadherin derivatives. […] The reactions were stopped with 1 M Na2CO3 and the absorbance at 420 nm was determined. […] The luciferase reaction was monitored by a TD-20e luminometer (Turner, USA) and normalized for the β-galactosidase activity. […]

B1: N-cadherin tail: Cytoplasmic domain of chicken N-cadherin tagged with a Flag epitope (protein)
chain: MKRRDKERQAKQLLIDPEDDVRDNILKYDEEGGGEEDQDYDLSQLQQPDTVEPDAIKPVGIRRLDERPIHAEPQYPVRSAAPHPGDIGDFINEGLKAADNDPTAPPYDSLLVFDYEGSGSTAGSLSSLNSSSSGGEQDYDYLNDWGPRFKKLADMYGGGDD
modifications: left off: small tags and cut ends
As to B1, the “luciferase activity (LEF-1 transactivation) after transfection with LEF-1 and cadherin derivative” value is listed as “no specific transactivation was detected”.
